Reference: publication PMC4856535 (Nature structural & molecular biology, 2016)

T1: His-GFP-caspase-1^CARD (wild type) (human, UniProt P29466 1-91)
T1 sequence (looked up): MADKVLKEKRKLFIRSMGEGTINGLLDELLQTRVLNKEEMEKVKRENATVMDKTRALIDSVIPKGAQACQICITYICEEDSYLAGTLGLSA


Tests used:
[1] = molecular target: TAMRA-labeled caspase-1^CARD-SUMO with C-terminal sortase motif (His-MBP removed by TEV protease in the assay) (human) (UniProt P29466); test: fluorescence polarisation
SEC = molecular target: the molecule itself; test: SEC
[2] = molecular target: T1, His-GFP-caspase-1^CARD (wild type); test: fluorescence polarisation

Row | Molecule | Ki [2] [nM] | also measured
1 | His-tagged human inhibitor of CARD (INCA) (from UniProt Q5XLA6 1-110) (natural protein) |  | Ki [1]: 9.4 nM
2 | His-MBP-ICEBERG (natural protein, human) ADQLLRKKRRIFIHSVGAGTINALLDCLLEDEVISQEDMNKVRDENDTVMDKARVLIDLVTGKGPKSCCKFIKHLCEEDPQLASKMGLH |  | binding result (SEC): binds

The next lines start with results.

Row | Ki [2] [nM] | Molecule | also measured
3 | 4.3 ± 1.4 | His-tagged human inhibitor of CARD (INCA) (natural protein, UniProt Q5XLA6 1-110, looked up) MADKVLKEKRKQFIRSVGEGTINGLLGELLETRVLSQEEIEIVKCENATVMDKARALLDSVIRKGAPACQICITYICEEDSHLAGTLGLSAGPTSGNHLTTQDSQIVLPS | 
4 | ~1700 | INCA R55E (natural protein, human, UniProt Q5XLA6 1-110, looked up) MADKVLKEKRKQFIRSVGEGTINGLLGELLETRVLSQEEIEIVKCENATVMDKAEALLDSVIRKGAPACQICITYICEEDSHLAGTLGLSAGPTSGNHLTTQDSQIVLPS | 
